# According to paper PMC2873993, “Comparative Therapeutic Effects of Velaglucerase Alfa and Imiglucerase in a Gaucher Disease Mouse Model” (PLoS ONE, 2010):
# How the values were obtained:
# [1] = Activation of GCase by BPS in detergent-free system; assay type: biochemical
# Procedure: (§1) Activation of Vela and Imig by the negatively charged lipid, BPS, and saposin C was determined in a detergent-free system with varying concentrations of either agent. The activities of both enzymes increased by 5- to 6-fold or 15- to 17-fold with saposin C (0 to 500 nM) or BPS (0 to 2 µM), respectively. […] Similarly, in the absence of saposin C, both enzymes reacted maximal activation with 0.5 µM of BPS. No significant differences were found in these responses (p = 0.5875–0.8473).
# (§2) Vela and Imig were compared for kinetic properties as described. Briefly, the standard GCase activity assay contained final concentrations of 50 mM citrate/phosphate, pH 5.5, 0.25% TC, 0.25% TX, and 4 mM 4MU-Glc in 200 µl. The reactions were stopped after incubation (30–60 min, 37°C) using 0.9 M ethylenediamine, pH 11.0 (100 µl). Standard curves for 4-MU fluorescence yield were generated for each assay with Ex/Em 460/515 nm (Molecular Dynamics SpectraMax GeminXS spectrofluorometer). […] For the reversible competitive inhibitors, Ki was calculated from IC50 = Ki (1+ [I]/[Km]). The IC50 or Ki values for various inhibitors (dNM and its derivatives, CBE, CS, IFG, DNPFG) were determined using 4MU-Glc as substrate. Activities with the NBD-GC substrate were as described. Enzyme assays with saposin C (0–500 nM/0.5 µM BPS) and BPS (0–2 µM) were as described, [40]. Saposin C was expressed in E. coli and purified as described. For thermostability assessments, equal amounts of Vela and Imig activities were added to 50 mM citrate/phosphate, pH 7.4, with or without human/mouse serum, and incubated for 0–240 min at 25 or 37°C. The pH optimum profiles were developed using 50 mM citrate/phosphate, pH 4.4–7.2. Protease susceptibilities of the two GCases were evaluated by cathepsin D (1–2 µM) digestion in 25 mM sodium acetate, pH 4.8, 50 mM NaCl, 1.25 mM EDTA, 1.25 mM DTT using 200 ng of Vela or Imig at 37°C for 4 h. All assays were conducted in triplicate and repeated at least twice. The amounts of intact enzyme were determined from density measurements on immunoblots and were compared to the initial amounts. The ratios of intact enzyme with and without cathepsin D were used as indicators of the enzyme's proteolytic susceptibility.
# [2] = GCase activity assay with 4MU-Glc substrate; assay type: biochemical
# Procedure: as §2
# [3] = Serum GCase activity, CRIM and CRIM-SA after i.v. bolus; details: for Recovery of injected activity in serum: 60 U/kg bolus, peak 2 min, % ± SE
# [4] = tested on: 9 V/null mice; test: Total serum IgE ELISA in mice that died after injection; details: mice that died after 4 or 5 injections of 60 U/kg/wk, n = 3
# [5] = target: T1, saposin C (Homo sapiens, UniProt P07602); test: Activation of GCase by saposin C in detergent-free system; assay type: biochemical
# T1 construct: Saposin C was expressed in E. coli and purified as described [40]; made in house; host or cells: E. coli
# T1 sequence (P07602 311-390 limits assumed): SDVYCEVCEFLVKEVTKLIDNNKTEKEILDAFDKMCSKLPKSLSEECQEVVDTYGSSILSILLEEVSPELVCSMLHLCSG
# Procedure: as §1, §2
# [6] = tested on: 9 V/null mice; test: Mouse anti-human GCase IgG ELISA
# [7] = tested on: 9 V/null mice; test: Storage cell quantification in liver and lung; assay type: in vivo, mouse
# Source text: Mice were sacrificed one week after the last injection, and sera and organs were collected for serologic studies, GCase activities, GC levels, and quantification of storage cells. At one week after the last injection, the GCase activities in liver, spleen, and lung had returned to background levels (not shown).
# Mice were anesthetized with isoflurane.
# Duplicate tissue sections were fixed in 10% formalin for hematoxylin and eosin (H&E) staining and in 4% paraformaldehyde-PBS, pH 7.4 for immunohistochemistry with CD68 antibody and examined using a Zeiss microscope equipped with SPOT Advance software (SPOT Diagnostic Instruments, Inc.). […] Mice (n = 6–14) in the Vela-, Imig-, or saline-treated groups were used, and the resultant data were analyzed using the Student's t-test.
# [8] = Tissue GCase activity, CRIM and CRIM-SA (liver, spleen, lung) after i.v. bolus; details: for Recovery of injected activity in liver / Recovery of injected activity in lung / Recovery of injected activity in spleen: 60 U/kg bolus, % ± SE; for peak liver activity relative to WT: 20 min
# [9] = 5-wk 9 V/null mice, peak 20 min
# [10] = 5-wk 9 V/null mice, 60 U/kg i.v.
# [11] = 20-wk 9 V/null mice, peak 20 min
# [12] = 20-wk 9 V/null mice, 60 U/kg i.v.
molecule,measurement,setting,value
"velaglucerase alfa (protein, N-linked oligosaccharides with higher α-mannosyl content (predominant number of mannoses is 9)) ARPCIPKSFGYSSVVCVCNATYCDSFDPPTFPALGTFSRYESTRSGRRMELSMGPIQANHTGTGLLLTLQPEQKFQKVKGFGGAMTDAAALNILALSPPAQNLLLKSYFSEEGIGYNIIRVPMASCDFSIRTYTYADTPDDFQLHNFSLPEEDTKLKIPLIHRALQLAQRPVSLLASPWTSPTWLKTNGAVNGKGSLKGQPGDIYHQTWARYFVKFLDAYAEHKLQFWAVTAENEPSAGLLSGYPFQCLGFTPEHQRDFIARDLGPTLANSTHHNVRLLMLDDQRLLLPHWAKVVLTDPEAAKYVHGIAVHWYLDFLAPAKATLGETHRLFPNTMLFASEACVGSKFWEQSVRLGSWDRGMQYSHSIITNLLYHVVGWTDWNLALNPEGGPNWVRNFVDSPIIVDITKDTFYKQPMFYHLGHFSKFIPEGSQRVGLVASQKNDLDAVALMHPDGSAVVVVLNRSSKDVPLTIKDPAVGFLETISPGYSIHTYLWRRQ",increase of activity with BPS,"[1]; BPS 0 to 2 µM, detergent-free",15- to 17 fold
same,BPS concentration of maximal activation,[1]; in the absence of saposin C,0.5 µM
same,greater activity compared to Imig,[2]; 4MU-Glc and GC substrates,6–10%
same,"GCase activity, 4MU-Glc","[2]; mean ± SE, n = 6","1,030,480±2,692 nmole/h/mg"
same,Km,[2]; n = 6,1590 ± 200 µM
same,Recovery of injected activity in serum,[3]; 5-wk 9 V/null mice,63.06±4.62%
same,serum activity by 20 min post-injection,"[3]; 9 V/null mice, 60 U/kg i.v.",< 10 % of the 2-min values
same,t½ of clearance of GCase activity in serum,"[3]; 9 V/null mice, 60 U/kg i.v.",8 to 11 min
same,Recovery of injected activity in serum,[3]; 20-wk 9 V/null mice,58.16±1.61%
same,catalytic value (CRIM-SA) of intact enzyme remaining in serum by 20 min,[3]; 60 U/kg i.v.,< 10 % of its original catalytic value
same,t½ of GCase CRIM disappearance in serum,"[3]; both age groups, 60 U/kg i.v.",~0.217 h
same,Total serum IgE levels,[4],46.4 to 234.9 ng/mL
same,saposin C concentration of maximum activation,[5]; in the presence of 0.5 µM BPS,200 nM
same,increase of activity with saposin C,"[5]; saposin C 0 to 500 nM, detergent-free",5- to 6 fold
same,serum anti-GCase IgG signals,"[6]; 5 or 15 U/kg/wk, each bleed",at background or very low levels
same,injected mice with increased serum anti-GCase IgG,"[6]; 60 U/kg/wk, by the 4th injection",> 50%
same,increase of serum anti-GCase IgG levels above background,"[6]; 60 U/kg/wk, by the 4th injection, at ∼3×10^3 dilution",~3 fold
same,numbers of storage cells in lungs (CD68),[7]; any dose,not different from saline control
same,difference in cellular clearance compared to Imig,"[7]; lungs, Gaucher cells, not significant",~10%
same,Recovery of injected activity in liver,[8]; [9],57.53±1.35%
same,Recovery of injected activity in lung,[8]; [9],0.1±0.01%
same,Recovery of injected activity in spleen,"[8]; 5-wk 9 V/null mice, peak 40 min",1.86±0.06%
same,drop of liver activity within 40 min,[8]; [10],about 60%
same,liver GCase activity by 42 h,[8]; [10],13–18 % of WT
same,peak spleen activity lower than in 20-wk mice,[8]; [10],2- to 3 fold
same,splenic CRIM-SA,[8]; [10],0.2–0.8×10^6 nmoles/h/mg enzyme protein
same,time liver activity remained at ≥WT level,[8]; [10],70 to 80 min
same,t½ of CRIM levels in spleen,[8]; [10],~2 h
same,t½ of activity disappearance in liver,[8]; [10],about 60 min
same,peak liver activity relative to WT,[8]; [10],~2.5 fold
same,Recovery of injected activity in liver,[8]; [11],60.36±2.01%
same,Recovery of injected activity in lung,[8]; [11],0.04±0.01%
same,Recovery of injected activity in spleen,[8]; [11],2.62±0.08%
same,decrease of liver GCase activity within 40 min,[8]; [12],~30%
same,decrease of spleen enzyme activity by 40 min,[8]; [12],~40%
same,liver GCase activity by 42 h,[8]; [12],13–15 % of WT
same,time liver activity remained at or above WT levels,[8]; [12],3 h
same,time spleen activity remained at ≥WT levels,[8]; [12],~3.5 h
same,t½ of CRIM disappearance in liver,[8]; [12],1.5 to 1.83 h
same,t½ of GCase activity disappearance in liver,[8]; [12],~1.67 h
same,t½ of GCase protein disappearance in spleen,[8]; [12],1.0 to 1.5 h
same,peak liver activity relative to WT,[8]; [12],2.5- to 3.5 fold
same,peak spleen activity relative to WT,"[8]; 20-wk 9 V/null mice, 20 min post-injection, 60 U/kg i.v.",3- to 4.5 fold
same,time liver activity remained at ≥WT level,"[8]; 20-wk 9 V/null mice, as restated",~180 min
same,enzyme recovered in spleens and lungs,"[8]; after bolus i.v. injections, abstract",< 5%
same,injected enzyme recovered from the liver,"[8]; intravenous bolus, discussion",≥ 60%
